According to patent US20230086871A1 (UNIVERSITY OF FREIBURG, published 2023):

Biological target: the molecule itself
Experiment: negative-stain transmission electron microscopy and 2D classification of purified His-SYMREM1 (self-assembly)

B1: His-SYMREM1 (purified, recombinant Medicago truncatula SYMREM1 protein) (other)
chain: MEESKNKQLELVDTLTPLPQSESEPREFSYFLEEKEPGNEGTSSSVVKQERVVSDHATSSVDQTTAAGTDTKDSVDRDAVLARVESQKRLALIKAWEENEKTKVENRAYKMQSAVDLWEDDKKASIEAKFKGIEVKLDRKKSEYVEVMQNKIGEIHKSAEEKKAMIEAQKGEEILKVEETAAKFRTRGYQPRRLLGCFSGLRFFS
notes: also called Symbiotic Remorin 1; recombinant SYMREM1; not shown: N-terminal His tag and linker from the pDEST17 Gateway vector
binding result: binds
